Numbering of substitutions follows the chain as printed. Numbers in names are those of the source.
B1: TtAG (Thermus thermophilus; Q10Y) (protein)
chain: MWWKEAVIYYVYPRSFQDTNGDGVADVEGVRRRLPYLKSLGVDAIWLSPFYKSPMKDFGYDLADYCDVDPIFGTLQDFDRLLEEAHALGLRVLVDLVPNHTSSEHPWFLESRASRNSPKRDWYIWKDPAPDGGPPNNWQSFFGGPAWTLDEATGQYYLHQFLPEQPDLNWRNPEVREALYEVMRFWLRRGVDGFRVDVLWLLAEDLLFKDEPGNPDWRPGMWDRGRHLHIFTEDQPETYAYVREMRQVLDEFSEPGRERVMVGEIYLPYPQLLRYYQAGCHLPFNFHLIFRGLPDWRPENLARIVEEYESLLTRWDWPNWVLGNHDQPRLASRLGEAQARVGAMLLFTLRGTPTWYYGDEIGMKNGEIPPEKVQDPAALRQKDRLGEHQLPPGRDPERTPMQWDDTPFAGFSTVEPWLPVNPDYKTRNVAAQENDPRSMLHLVRRLIALRKDPDLLYGAYRTYRAREGVYAYLRGEGWLVAINLTEKEKALELPRGGRVVLTTHLDREERVGERLLLRPDEGVVVRLD
B2: TtAG (Thermus thermophilus) (protein)
chain: B1 chain with Y10Q
notes: trimer by DLS (184 kDa)

Assays:
[1] = substrate: O=[N+]([O-])c1ccc(O[C@H]2O[C@H](CO)[C@@H](O)[C@H](O)[C@H]2O)cc1; assay: purified protein
[2] = substrate: OC[C@H]1O[C@H](O[C@H]2O[C@H](CO)[C@@H](O)[C@H](O)[C@H]2O)[C@H](O)[C@@H](O)[C@@H]1O; assay: glucose release, glucose oxidase assay; assay type: biochemical, Thermus thermophilus; settings: 90 °C, citric acid-sodium phosphate buffer pH 5.0
[3] = substrate: OC[C@H]1O[C@@](CO)(O[C@H]2O[C@H](CO)[C@@H](O)[C@H](O)[C@H]2O)[C@@H](O)[C@@H]1O; assay: glucose release, glucose oxidase assay; assay type: biochemical, Thermus thermophilus; settings: 90 °C, citric acid-sodium phosphate buffer pH 5.0
[4] = optimal reaction conditions (90 °C, pH 5.0), substrate pNPG implied by context
[5] = 90 °C, citric acid-sodium phosphate buffer pH 5.0

Protein	Km [1, 4]	kcat [1, 4]	Km [1, 5]	kcat [1, 5]	kcat/Km [1, 5]	Km [2]	kcat [2]	kcat/Km [2]	Km [3]	kcat [3]	kcat/Km [3]
B1	0.46 mM	356.57 s⁻¹	–	–	–	–	–	–	–	–	–
B2	–	–	0.48 mM	659 s⁻¹	1.37e+06 M⁻¹ s⁻¹	19.96 mM	140 s⁻¹	7020 M⁻¹ s⁻¹	30.53 mM	74.6 s⁻¹	2460 M⁻¹ s⁻¹

Reference: paper PMC4618444, “Evaluation and directed evolution for thermostability improvement of a GH 13 thermostable α-glucosidase from Thermus thermophilus TC11” (BMC Biotechnology, 2015)
